The nanobody polyreactivity screen of Harvey et al. (2022)

Assay: yeast display, Sf9 membrane polyspecificity reagent, FACS + sequencing; frameworks hold sequencing errors
How it was run: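 A synthetic nanobody library was expressed on Saccharomyces cerevisiae BJ5465 by galactose induction for 36–48 hours. The library was stained for 1 hour at 4 °C with 10% biotinylated, detergent-solubilized Sf9 membrane reagent and enriched with streptavidin microbeads before FACS. Low and high (top ~1%) gates were set on anti-HA fluorescence for expression and streptavidin fluorescence for reagent binding, and each polyreactivity label reflects the gate of origin.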

Sequence | polyreactivity (PSR sort gate)
QVQLVESGGGLVQAGGSLRLSCAASGGTFGTNTMGWYRPAHGKERELVAAISKRGGRTYYADSVKGRFTISRDNAKITVYLQMNSLKPEDTAVYYCAADTGGNPKYDYWGQGTQVTVSS | high polyreactivity
QVQLVESGGGLVQAGGSLRLSCAASGLTFYLNAMGWYRQAPGKERELVAGISYTGGSTYYADSVKGRFTISRDNAKNTVYLQMNSLKPEDTAVYYCARDNFYYGVWDYGYWGQGTQVTVSS | low polyreactivity
QVQLVESGGGLVQAGGSLRLSCAASGSIFIGYAIGWYRQAPGKERELVAAITNGGRTYFADSVKGRFTISRDNAKNTVYLQMISLKPEDTAVYYCAAVPSQTYRRTPYLWHDYWGQGTQVTVSS | high polyreactivity
QVQLLESGGGLVQAGGSLRLSCAASGLTVYGYVMAWYRHAPGKERELVASISRSGCRTYYADSVKGRFTISRDNEKNTVYLQMNSLKPEDTAVYYCAADDQVGQEDDYWGQGTQVTVSS | low polyreactivity
QVQLVESGGGLVPAGGSLRLSWAASGFIFGYNVMGWYRQAPGKVRELVAAISRGGSTNYADSVKGRFTISRDNAKKTVSGQMTSLKPEATAVYDCAARRYRPAAFDSWGQGTQVTVSS | high polyreactivity
QVQLVESGGGLVQAGGSLRLSCAASGRIFVGYAMGWYRQAPGKERELVAAISSRGGSTYYADSVKGRFTISRDNAKNTVYLQMNSLKPEDTAVYYCAKVRTYRYYDGGDYWGQGTQVTVSS | high polyreactivity
QVQLVESGGGLVQAGGSLRLSCAASGRIFYGNVIGWYRQAPGKERELVADIYYDGGSTYYADSVKGRFTISRDNAKNTVYLQMNSLKPEDTAVYYCNKREVFIYGTTYDYWGQGTQVTVSS | low polyreactivity
QVQLVESGGGLVQAGGSLRLSCAASGFIIFRYAMGWYRQAPGKERELDAAITRSGGSTYYADSVKGRFTISRDNAKNSVYLQMNCLKPEDTAVYYCNASRQCFTYARMDYWGQGTQVTVSS | high polyreactivity
QVQLVESGGGLVQAGGSLRLSCAASGRPFRGNAMGWYRQAPGKERQLVAAITGTGGSTYYADSVKGRFTISRDNAKNTVYLQMNSVKPEDTAVYYCAAVLRGHNGLNFEYWGQGTQVTVSS | high polyreactivity
QVHLVESGGGLVQAGGSLRLSCAASGFTFIRYAMGWYRQAPGKETELVAAISVSGGRTYYADSVKGRFTISRDNAKNTVYLQMNSLKPEDTAVYYCARRPSYYQGDYWGQGTQVTVSS | high polyreactivity
QVQLVESGGGLVQAGGSLRLSCAASGRIFYGNAMGWYRQAPGKERELVATISSSGGRTTYADSVKGRFTISRDNAKNTVYLQMNSLKPEDTAVYYCNARYRTRSLKYYYWGQGTQVTVSS | high polyreactivity
QVQLVESGGGIVQAGGSLRLSCATSGRIFDNNPKGRYRQAPGKESEMVAAIDWRGGTTDYADSVKGRFTISRDNAKNTVYFQMKSLKPEDTAVYYSNARGLNYYGRTFNYWGQGTQVTVSS | low polyreactivity
QVQLVESGGGLVQAGGSLRLSCAASGSTFYRFAMGWYRTAPGKERELVAAISRSGGSTYYADTVKGRFTISRDNAKNTVYLQMNSLKPEDTAVYYCAAQYTFYYRSWSDYWGQGTQVTVSS | high polyreactivity
QVHLVESGGGLVQAGGSLRLSCAASGNIFGLYAMGWYRQAPGKERELVAAIRWIGGRTYYADSVKGRFTISRDNAKNTVYLQMNSLKPEDTAVYYCNAEYIVYYRGYDYWGHGTQVTVSS | high polyreactivity
QVQLVESGGGLVPAGGSLRLSCAASGRIFVVYSMGWYRQAPGKERELVASISGGSTNYADSVKGRFTISRDNAKNTVYLQMNSLKPEDTAVYFCGMEYWGQGTQVTVSS | low polyreactivity
QVQLVESGGGLVQAGGSLRLSCAASGNTFVYKDMGWYRQAPGKERELVADIRYSGSTYYADSVKGRFTISRDNAKNTVYLQMNSLKPEDTAVYYCAKAYYVLSWMGYWGQGTQVTVSS | low polyreactivity
QVQLVESGGGLVQAGGSLRLSCAASGFIFYYNAMGWYRQAPGKERELVAAITRSGGSTFYADSVKGRFTISRDNAKNTVYLQMNSLKPEDTAVYYCAAKGNPYRVPGSSYPKVNYWGQGTQVTVSS | high polyreactivity
